The results in this text go back to patent US20250353921A1.

For test [1], the target named is Human OX40 (Acro Biosystems, catalog NO: OXO-H5224) protein (human) (UniProt P43489). Briefly: SPR Biacore 8K+, single cycle kinetics, antibody captured by anti-human Fc, OX40 analyte, pH 7.4, 25 °C. Background: In SPR one partner is held on a chip, and binding of the other changes the refractive index at the surface.
Test [2] deals with human OX40 (TNFRSF4, CD134) on cells (human) (UniProt P43489). Briefly: cell-based or functional assay.
For test [3] the target is unchanged. Briefly: flow cytometry on Jurkat-NFκB (OX40) cells, detection with anti-human IgG Fc-AF647.

pKd: −log10 of the molar value. Values joined by “and” are separate entries in the source; they are usually repeats but may differ in a detail not shown here. Equal values may be shown once. Where only a bound is given, the exact number is not on record here.

One may read the pKd as −log10 of the Kd, conventionally taken in molar units. Lower therefore signals a large Kd. Broadly, the EC50 (read off the curve) is the concentration giving half of the maximal effect. A lower EC50 (read off the curve) goes with greater potency.

Sequence of human OX40 (TNFRSF4, CD134) on cells (human) (P43489 29-277 limits assumed): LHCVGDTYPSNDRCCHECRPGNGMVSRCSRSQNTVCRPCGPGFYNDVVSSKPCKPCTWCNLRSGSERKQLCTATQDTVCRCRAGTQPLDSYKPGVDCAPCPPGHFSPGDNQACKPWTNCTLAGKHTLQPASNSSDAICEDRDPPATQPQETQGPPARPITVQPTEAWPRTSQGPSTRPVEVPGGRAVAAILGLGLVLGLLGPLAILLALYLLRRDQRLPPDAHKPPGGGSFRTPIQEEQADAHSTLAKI
Sequence of Human OX40 (Acro Biosystems, catalog NO: OXO-H5224) protein (human) (P43489 29-216 limits assumed): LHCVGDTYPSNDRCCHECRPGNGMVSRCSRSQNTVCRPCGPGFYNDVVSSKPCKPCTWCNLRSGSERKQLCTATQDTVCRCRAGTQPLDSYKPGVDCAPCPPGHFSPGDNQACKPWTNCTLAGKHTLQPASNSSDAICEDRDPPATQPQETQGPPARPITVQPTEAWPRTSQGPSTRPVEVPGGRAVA

In turn, AMG451 (rocatinlimab) (antibody) showed a negative logarithm of the Kd (pKd) in test [1] of 8.52. In test [2], the ADCC EC50, activated T cells turned out to be 0.008 nM; the ADCC EC50, in vitro differentiated Tregs amounted to 0.005 nM; the ADCC EC50, regulatory T cells (LDH release) is 0.05 nM; the EC50, inhibition of IL-2 release was found to be 5.87 nM. Further, in test [2], the EC50, inhibition of IL-4 release is 1.77 nM; the EC50, inhibition of IL-5 release was found to be 18.6 nM; the EC50, inhibition of IL-8 release came to 4.05 nM; the EC50, inhibition of IL-10 release is 20.3 nM. Moreover, in test [2], the EC50, inhibition of IL-13 release was determined as 4 nM; the EC50, inhibition of IL-17a release was determined as 11.7 nM; the EC50, inhibition of IL-21 release was found to be 2.75 nM; the EC50, inhibition of IL-22 release came out at 10.4 nM. Besides, in test [2], the EC50, inhibition of IL-31 release is 1.84 nM; the EC50, inhibition of T cell proliferation was 0.15 nM and 0.019 µg/ml; the EC50, inhibition of TNF-α release worked out at 3.9 nM; the Maximum killing (%), ADCC, activated T cells was 60.3%. In test [2], the Maximum killing (%), ADCC, regulatory T cells amounted to 85.8% and the responders (Resp) of donors tested, coated T cell agonism assay (responders of 9 donors) turned out to be 7.

In test [2], IMG-007 (antibody) showed a luminescence, Jurkat-NFκB-OX40 agonism assay of 3 fold.

Consider IgG1 control (antibody), for which, in test [2], the Maximum killing (%), ADCC, activated T cells was found to be 2.27%; the Maximum killing (%), ADCC, regulatory T cells is -0.83%; the average proliferation index (Av), coated T cell agonism assay was 1.16; the responders (Resp) of donors tested, coated T cell agonism assay (responders of 15 donors) amounted to 0.

In turn, “MEDI0562 (humanized 9B12, tavolixizumab) (antibody)” had a half-maximal effective concentration (EC50 (read off the curve)) in test [3] of 0.1 µg/mL. In test [2], this substance gave an average proliferation index (Av), coated T cell agonism assay of 3.41; a luminescence, Jurkat-NFκB-OX40 agonism assay of more than 2 fold; a responders (Resp) of donors tested, coated T cell agonism assay (responders of 11 donors) of 9.
